1 substance from US20200246419A1 can be followed below.

This experiment deals with CD36 (human) (UniProt P16671). As to the kind of experiment: cell-based or functional assay.
CD36 (human), sequence (P16671 2-472): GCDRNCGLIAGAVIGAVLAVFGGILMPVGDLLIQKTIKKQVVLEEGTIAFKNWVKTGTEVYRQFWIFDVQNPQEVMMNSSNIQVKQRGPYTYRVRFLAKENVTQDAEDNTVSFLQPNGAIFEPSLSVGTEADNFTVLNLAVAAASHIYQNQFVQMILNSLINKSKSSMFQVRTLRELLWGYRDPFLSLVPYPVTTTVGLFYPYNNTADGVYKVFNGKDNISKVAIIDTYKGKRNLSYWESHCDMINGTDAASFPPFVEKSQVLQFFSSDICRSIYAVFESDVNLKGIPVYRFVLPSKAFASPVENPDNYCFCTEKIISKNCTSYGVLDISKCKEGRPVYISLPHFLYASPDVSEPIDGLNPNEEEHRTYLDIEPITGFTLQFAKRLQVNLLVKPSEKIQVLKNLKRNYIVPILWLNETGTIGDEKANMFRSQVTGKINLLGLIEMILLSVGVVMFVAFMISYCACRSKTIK

In turn, “recombinant human Tsp-1 (from UniProt P07996 19-1170) (ligand)” displayed a total cell number (Wst-1 assay) of patient-derived ovarian cancer cell lines treated with rhTsp-1 for up to 72 hours below 50%.
